US20260274985A1 (MYTHIC THERAPEUTICS, published 2026)
Numbering of substitutions follows the chain as printed.

B1: MYT13429 (antibody, V domains shown)
VH: QVQLQQSGSELKKPGASVKVSCKASGYTFTNYGMNWVKQAPGQGLKWMGWINTYTGEPTYTDDFKHRFAFSLDTSVSTAYLQISSLKADDTAVYFCARGGFGSSYWYFDVWGQGSLVTVSS
VL: DIQLTQSPSSLSASVGDRVSITCKASQDVHIAVAWYQQKPGKAPKLLIYSHSYRYTGVPDRFSGSGSGTDFTLTISSLQPEDFAVYYCQQHYHTPLTFGAGTKVEIK
B2: MYT13426 (antibody, V domains shown)
VH: B1 VH with D63H, H66G
VL: B1 VL
B3: MYT13401 (antibody, V domains shown)
VH: B1 VH with D62H, H66G
VL: B1 VL with H30S, V33H, H51A
B4: MYT13368 (antibody, V domains shown)
VH: B1 VH with Y60H, H66G
VL: B1 VL with V33H, H51A, H93I
B5: MYT13416 (antibody, V domains shown)
VH: B1 VH with Y60H, H66G
VL: B1 VL with Q89H, H93I
B6: MYT13372 (antibody, V domains shown)
VH: B1 VH with K65H, H66G
VL: B1 VL with V33H, H51A, H93I
B7: MYT13433 (antibody, V domains shown)
VH: B1 VH with D62H, H66G
VL: B1 VL with H30S, Y53H
B8: MYT13424 (antibody, V domains shown)
VH: B1 VH with Y60H, H66G
VL: B1 VL
B9: MYT13432 (antibody, V domains shown)
VH: B1 VH with Y60H, H66G
VL: B1 VL with H30S, Y53H
B10: MYT13386 (antibody, V domains shown)
VH: B1 VH with D63H, H66G
VL: B1 VL with H51A, S52H, H93I
B11: MYT13417 (antibody, V domains shown)
VH: B1 VH with D62H, H66G
VL: B1 VL with Q89H, H93I
B12: MYT13376 (antibody, V domains shown)
VH: B1 VH with Y60H, H66G
VL: B1 VL with H93I
B13: MYT13422 (antibody, V domains shown)
VH: B1 VH with Y32H, H66G
VL: B1 VL
B14: MYT13434 (antibody, V domains shown)
VH: B1 VH with D63H, H66G
VL: B1 VL with H30S, Y53H
B15: MYT13400 (antibody, V domains shown)
VH: B1 VH with Y60H, H66G
VL: B1 VL with H30S, V33H, H51A
B16: MYT13403 (antibody, V domains shown)
VH: B1 VH with F64H, H66G
VL: B1 VL with H30S, V33H, H51A
B17: MYT13437 (antibody, V domains shown)
VH: B1 VH
VL: B1 VL with H30S, Y53H
B18: MYT13418 (antibody, V domains shown)
VH: B1 VH with D63H, H66G
VL: B1 VL with Q89H, H93I
B19: MYT13378 (antibody, V domains shown)
VH: B1 VH with D63H, H66G
VL: B1 VL with H93I
B20: MYT13405 (antibody, V domains shown)
VH: B1 VH
VL: B1 VL with H30S, V33H, H51A
B21: MYT13374 (antibody, V domains shown)
VH: B1 VH with Y32H, H66G
VL: B1 VL with H93I
B22: MYT13388 (antibody, V domains shown)
VH: B1 VH with K65H, H66G
VL: B1 VL with H51A, S52H, H93I
B23: MYT13395 (antibody, V domains shown)
VH: B1 VH with F64H, H66G
VL: B1 VL with H30S, V33H, H51A, Y53H, H93I
B24: MYT13420 (antibody, V domains shown)
VH: B1 VH with K65H, H66G
VL: B1 VL with Q89H, H93I
B25: MYT13377 (antibody, V domains shown)
VH: B1 VH with D62H, H66G
VL: B1 VL with H93I
B26: MYT13421 (antibody, V domains shown)
VH: B1 VH
VL: B1 VL with Q89H, H93I
B27: MYT13379 (antibody, V domains shown)
VH: B1 VH with F64H, H66G
VL: B1 VL with H93I
B28: MYT13366 (antibody, V domains shown)
VH: B1 VH with Y32H, H66G
VL: B1 VL with V33H, H51A, H93I
B29: MYT13392 (antibody, V domains shown)
VH: B1 VH with Y60H, H66G
VL: B1 VL with H30S, V33H, H51A, Y53H, H93I
B30: MYT13371 (antibody, V domains shown)
VH: B1 VH with F64H, H66G
VL: B1 VL with V33H, H51A, H93I
B31: MYT13435 (antibody, V domains shown)
VH: B1 VH with F64H, H66G
VL: B1 VL with H30S, Y53H
B32: MYT13373 (antibody, V domains shown)
VH: B1 VH
VL: B1 VL with V33H, H51A, H93I

Target: T1, TROP2 on TROP2-positive NCI-H1975 cells (human, UniProt P09758 27-323)
T1 sequence: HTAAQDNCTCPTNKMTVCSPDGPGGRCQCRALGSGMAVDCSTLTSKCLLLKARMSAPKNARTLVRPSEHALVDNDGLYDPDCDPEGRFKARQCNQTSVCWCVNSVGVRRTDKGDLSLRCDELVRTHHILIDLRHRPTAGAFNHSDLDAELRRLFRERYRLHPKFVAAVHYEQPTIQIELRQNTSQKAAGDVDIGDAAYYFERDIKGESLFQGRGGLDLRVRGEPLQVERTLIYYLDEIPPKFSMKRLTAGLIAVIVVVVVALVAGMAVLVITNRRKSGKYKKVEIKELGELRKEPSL
Assay: cell-based or functional assay

Row | Binder | FOW H1975 (10 nM) [fold over parent antibody]
1 | B1 | 1.83
2 | B2 | 1.71
3 | B3 | 1.16
4 | B4 | 1.43
5 | B5 | 1.29
6 | B6 | 1.18
7 | B7 | 1.82
8 | B8 | 1.71
9 | B9 | 1.4
10 | B10 | 1.71
11 | B11 | 1.76
12 | B12 | 1.42
13 | B13 | 1.13
14 | B14 | 1.46
15 | B15 | 1.13
16 | B16 | 1.13

Row | Binder | FOW H1975 (10 nM) [fold over parent antibody]
17 | B17 | 1.49
18 | B18 | 1.51
19 | B19 | 1.4
20 | B20 | 1.16
21 | B21 | 1.37
22 | B22 | 1.24
23 | B23 | 1.29
24 | B24 | 1.34
25 | B25 | 1.26
26 | B26 | 1.42
27 | B27 | 1.33
28 | B28 | 1.35
29 | B29 | 1.19
30 | B30 | 1.51
31 | B31 | 1.33
32 | B32 | 1.6
